In IntAct's records for PubMed 11027267:

B1: KRR1 small subunit processome component (Saccharomyces cerevisiae), P25586 (parent)
chain: MVSTHNRDKPWDTDDIDKWKIEEFKEEDNASGQPFAEESSFMTLFPKYRESYLKTIWNDVTRALDKHNIACVLDLVEGSMTVKTTRKTYDPAIILKARDLIKLLARSVPFPQAVKILQDDMACDVIKIGNFVTNKERFVKRRQRLVGPNGNTLKALELLTKCYILVQGNTVSAMGPFKGLKEVRRVVEDCMKNIHPIYHIKELMIKRELAKRPELANEDWSRFLPMFKKRNVARKKPKKIRNVEKKVYTPFPPAQLPRKVDLEIESGEYFLSKREKQMKKLNEQKEKQMEREIERQEERAKDFIAPEEEAYKPNQN
partner: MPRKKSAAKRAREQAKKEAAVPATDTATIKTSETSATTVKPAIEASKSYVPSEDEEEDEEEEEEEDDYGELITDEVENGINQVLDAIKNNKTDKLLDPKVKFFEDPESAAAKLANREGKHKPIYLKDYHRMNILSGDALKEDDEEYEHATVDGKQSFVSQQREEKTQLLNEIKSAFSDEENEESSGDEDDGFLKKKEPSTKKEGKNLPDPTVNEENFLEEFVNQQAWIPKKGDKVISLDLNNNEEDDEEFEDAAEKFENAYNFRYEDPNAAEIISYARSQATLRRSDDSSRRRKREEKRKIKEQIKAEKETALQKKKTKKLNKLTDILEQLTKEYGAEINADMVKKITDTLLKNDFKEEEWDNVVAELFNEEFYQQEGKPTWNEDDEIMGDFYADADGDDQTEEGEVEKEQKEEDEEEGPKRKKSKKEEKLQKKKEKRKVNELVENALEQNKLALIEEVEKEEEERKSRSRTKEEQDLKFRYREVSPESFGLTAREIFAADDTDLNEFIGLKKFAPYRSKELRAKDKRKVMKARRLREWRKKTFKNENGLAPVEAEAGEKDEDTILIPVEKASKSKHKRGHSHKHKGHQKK

Variants of: B1
Conditions: with kri1_yeast KRI1, P42846

| effect of a mutation on the interaction | Variant |
| --- | --- |
| decreasing interaction | F45L;L95S;R207G |
| decreasing interaction | K20E;K66N;C162R;D261A |
